Patent publication US20230220443

Target: H3(1-53) peptide

B1: protein lysine N-methyltransferase (histone H3 lysine-9 specific) from Neurospora crassa (NcDIM-5) (protein)
chain: IRSFATHAQLPISIVNREDDAFLNPNFRFIDHSIIGKNVPVADQSFRVGCSCASDEECMYSTCQCLDEMAPDSDEEADPYTRKKRFAYYSQGAKKGLLRDRVLQSQEPIYECHQGCACSKDCPNRVVERGRTVPLQIFRTKDRGWGVKCPVNIKRGQFVDRYLGEIITSEEADRRRAESTIARRKDVYLFALDKFSDPDSLDPLLAGQPLEVDGEYMSGPTRFINHSCDPNMAIFARVGDHADKHIHDLALFAIKDIPKGTELTFDYVNGLTGLESDAHDPSKISEMTKCLCGTAKCRGYLW
- Km for peptide H3(1-53), TM0936-coupled methyltransferase assay (absorbance 263 nm), SAM saturating, 7.6 nM NcDIM-5, glycine buffer pH 9.50: 0.9 µM
